# Experimental data reported in US20250243282A1.
# B1: TB006 (antibody, human IgG4 S228P, kappa, V domains shown)
# VH: QVQLVQSGAEVKKPGASVKVSCKASGYSFTNYYMHWVRQAPGQRLEWMGWIYPGSGNTNYNEKFQGRVTITADTSASTAYMELSSLRSEDTAVYYCSTAPGGFDVWGQGTTVTVSS
# VL: DIVMTQTPLSLSVTPGQPASISCKSSKSLLHSDGITYLYWYLQKPGQSPQLLIYRMSNLASGVPDRFSGSGSGTDFTLKISRVEAEDVGVYYCAQMLEFPLTFGQGTKLEIKR
# B2: 847.14H4 (antibody, from a related filing, V domains shown)
# VH: QIQLVQSGPELTKPGETVKISCKASGYTFTDYGMNWVRQAPGETLKWMGWINTYTGEPTYADDFKGRFAFSLESSASTAYLQINNLKNEDVATYFCARYPMDYWGQGTSVTVSS
# VL: QAVVTQESALTTSPGETVTLTCRSSTGAVTTSNYANWVQEKPDHLFTGLIGGTNNRAPGVPARFSGSLIGDKAALTITGAQTEDEAIYFCALWYSNHLVFGGGTKLTVL
# B3: 14D11.2D2 (antibody, from another filing, V domains shown)
# VH: QVQLKESGPGLVAPSQSLSITCTISGFSLSSYGVHWVRQPPGKGLEWLVVIWSDGSTTYNSTLKSRLSISKDNSKSQVFLKMNSLQTDDTAMYYCARHISNYGTMDYWGQGTSVTVS
# VL: DIQMTQTTSSLSASLGDRVTISCRASQDIRNYLNWYQQKPDGSIKLLIYYTSRLHSGVPSRFSGSGSGTDYSLTIRNLEQEDIATYFCQHFNTLPPTFGGGTKLEIK
# B4: F846C.1H5 (antibody, V domains shown)
# VH: EVQLLESGGGLVKPGGSLKLSCAASGFTFSSYAMSWVRQTPEKRLEWVASISSGGDTYYPDSVKGRFTISRDNARNILYLQMSSLRSEDTAMYYCASYGNSLFDYWGQGTTLTVSS
# VL: DVVMTQTPLSLPVSLGDQASISCRSSQSLVHNSGNTYLHWYLQRPGQSPNLLIYKVSNRFSGVPDRFSGSGSGTDFTLKISRVAAEDLGVYFCSQSTHVPPTFGGGTKLEIKR
# Tests used:
# [1] = biological target: cynomolgus Gal3 (cynomolgus); experiment: method not stated (FIG. 20)
# [2] = biological target: Recombinant human Gal3 (rhGal3) (TrueBinding, #QC200361) (human) (UniProt P17931); experiment: cell-based or functional assay
# Throughout, for % inhibition of CD62L shedding: test concentration or dose not given here.
# Throughout, for % inhibition of IL-6 secretion: test concentration or dose not given here.
# Throughout, for % inhibition of TNFα secretion: test concentration or dose not given here.
# Sequence of Recombinant human Gal3 (rhGal3) (TrueBinding, #QC200361) (human) (P17931 2-250 limits assumed): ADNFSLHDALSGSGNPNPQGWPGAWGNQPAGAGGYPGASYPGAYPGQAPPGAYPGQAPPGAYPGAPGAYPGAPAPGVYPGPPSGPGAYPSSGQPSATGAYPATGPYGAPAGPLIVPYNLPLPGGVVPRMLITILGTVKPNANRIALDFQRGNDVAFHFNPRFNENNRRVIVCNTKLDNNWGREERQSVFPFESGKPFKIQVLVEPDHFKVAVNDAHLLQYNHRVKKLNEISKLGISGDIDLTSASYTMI
# Sequence of cynomolgus Gal3 (cynomolgus) (chain, as listed by the source): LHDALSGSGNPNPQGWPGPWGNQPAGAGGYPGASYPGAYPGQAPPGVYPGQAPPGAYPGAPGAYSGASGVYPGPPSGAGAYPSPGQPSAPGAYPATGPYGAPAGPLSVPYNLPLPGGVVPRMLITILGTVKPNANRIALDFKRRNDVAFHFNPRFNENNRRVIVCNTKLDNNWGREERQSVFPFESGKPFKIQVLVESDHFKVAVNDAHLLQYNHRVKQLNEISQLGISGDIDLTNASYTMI
Binder,Kd [1],% inhibition of CD62L shedding [2],% inhibition of IL-6 secretion [2],% inhibition of TNFα secretion [2]
B1,5.1 nM,,,
B2,,34.4%,-71.4%,-181%
B3,,86.2%,,
B4,,100%,-49.7%,-162%
